# Data as given in IntAct's records for PubMed 35512704.
# B1: Speckle-type POZ protein (Homo sapiens), O43791 (parent)
# chain: MSRVPSPPPPAEMSSGPVAESWCYTQIKVVKFSYMWTINNFSFCREEMGEVIKSSTFSSGANDKLKWCLRVNPKGLDEESKDYLSLYLLLVSCPKSEVRAKFKFSILNAKGEETKAMESQRAYRFVQGKDWGFKKFIRRDFLLDEANGLLPDDKLTLFCEVSVVQDSVNISGQNTMNMVKVPECRLADELGGLWENSRFTDCCLCVAGQEFQAHKAILAARSPVFSAMFEHEMEESKKNRVEINDVEPEVFKEMMCFIYTGKAPNLDKMADDLLAAADKYALERLKVMCEDALCSNLSVENAAEILILADLHSADQLKTQAVDFINYHASDVLETSGWKSMVVSHPHLVAEAYRSLASAQCPFLGPPRKRLKQS
# partner: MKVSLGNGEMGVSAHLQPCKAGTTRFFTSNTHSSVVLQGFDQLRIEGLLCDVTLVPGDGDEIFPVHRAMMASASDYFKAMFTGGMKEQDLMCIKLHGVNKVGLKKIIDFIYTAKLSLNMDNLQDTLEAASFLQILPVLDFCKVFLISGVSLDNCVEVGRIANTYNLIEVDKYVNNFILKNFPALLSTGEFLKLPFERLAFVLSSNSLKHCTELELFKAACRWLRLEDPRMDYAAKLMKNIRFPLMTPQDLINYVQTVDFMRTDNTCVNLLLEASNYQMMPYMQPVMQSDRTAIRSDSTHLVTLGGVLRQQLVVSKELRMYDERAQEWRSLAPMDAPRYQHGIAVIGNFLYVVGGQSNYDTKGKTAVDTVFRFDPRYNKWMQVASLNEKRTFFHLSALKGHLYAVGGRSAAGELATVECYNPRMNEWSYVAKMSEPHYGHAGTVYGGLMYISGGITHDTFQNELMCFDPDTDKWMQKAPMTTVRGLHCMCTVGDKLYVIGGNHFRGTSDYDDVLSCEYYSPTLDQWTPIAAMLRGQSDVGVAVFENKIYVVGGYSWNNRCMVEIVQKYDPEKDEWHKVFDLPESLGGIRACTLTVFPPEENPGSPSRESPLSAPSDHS
# B2: Speckle-type POZ protein (Homo sapiens), O43791 (parent)
# chain: B1 chain
# partner: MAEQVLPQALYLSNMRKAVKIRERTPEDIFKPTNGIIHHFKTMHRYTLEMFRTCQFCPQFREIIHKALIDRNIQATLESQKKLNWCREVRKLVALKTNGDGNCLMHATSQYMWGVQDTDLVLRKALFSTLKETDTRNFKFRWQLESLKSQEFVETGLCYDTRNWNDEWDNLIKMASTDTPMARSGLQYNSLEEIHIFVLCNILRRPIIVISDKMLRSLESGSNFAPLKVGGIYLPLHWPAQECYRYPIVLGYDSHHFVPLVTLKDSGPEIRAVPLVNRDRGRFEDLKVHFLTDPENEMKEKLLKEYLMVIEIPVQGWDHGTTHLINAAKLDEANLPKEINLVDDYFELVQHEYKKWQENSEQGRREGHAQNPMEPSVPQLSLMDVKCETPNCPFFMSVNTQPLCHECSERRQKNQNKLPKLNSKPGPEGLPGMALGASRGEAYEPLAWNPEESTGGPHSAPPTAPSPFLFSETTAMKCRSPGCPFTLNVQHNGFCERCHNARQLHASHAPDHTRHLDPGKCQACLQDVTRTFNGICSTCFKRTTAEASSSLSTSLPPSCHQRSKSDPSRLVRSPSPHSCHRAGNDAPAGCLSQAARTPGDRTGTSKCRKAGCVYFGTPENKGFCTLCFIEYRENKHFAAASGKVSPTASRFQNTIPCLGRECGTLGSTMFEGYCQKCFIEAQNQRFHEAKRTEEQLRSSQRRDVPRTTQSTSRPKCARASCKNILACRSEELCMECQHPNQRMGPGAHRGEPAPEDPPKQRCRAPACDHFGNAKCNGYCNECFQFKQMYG
# B3: Speckle-type POZ protein (Homo sapiens), O43791 (parent)
# chain: B1 chain
# partner: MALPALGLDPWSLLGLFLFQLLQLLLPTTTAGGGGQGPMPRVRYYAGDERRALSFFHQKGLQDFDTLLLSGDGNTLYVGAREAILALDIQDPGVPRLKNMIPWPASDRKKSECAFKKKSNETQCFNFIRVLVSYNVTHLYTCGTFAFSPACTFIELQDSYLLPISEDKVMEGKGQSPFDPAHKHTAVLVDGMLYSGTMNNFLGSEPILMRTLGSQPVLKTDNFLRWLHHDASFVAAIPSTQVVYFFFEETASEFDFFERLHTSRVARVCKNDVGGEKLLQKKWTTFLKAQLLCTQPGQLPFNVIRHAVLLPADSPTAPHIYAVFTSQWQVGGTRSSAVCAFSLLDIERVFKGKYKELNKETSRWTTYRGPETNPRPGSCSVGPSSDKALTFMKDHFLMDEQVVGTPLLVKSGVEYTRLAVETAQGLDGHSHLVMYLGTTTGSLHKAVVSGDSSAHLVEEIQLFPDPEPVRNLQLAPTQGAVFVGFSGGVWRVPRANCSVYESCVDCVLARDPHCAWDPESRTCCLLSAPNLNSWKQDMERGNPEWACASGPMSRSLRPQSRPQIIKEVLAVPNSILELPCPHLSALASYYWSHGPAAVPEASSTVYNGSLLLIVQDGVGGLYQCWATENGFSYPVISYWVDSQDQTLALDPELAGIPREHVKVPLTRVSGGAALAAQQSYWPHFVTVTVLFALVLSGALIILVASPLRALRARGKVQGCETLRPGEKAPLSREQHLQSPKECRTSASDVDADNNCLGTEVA
# B4: Speckle-type POZ protein (Homo sapiens), O43791 (parent)
# chain: B1 chain
# partner: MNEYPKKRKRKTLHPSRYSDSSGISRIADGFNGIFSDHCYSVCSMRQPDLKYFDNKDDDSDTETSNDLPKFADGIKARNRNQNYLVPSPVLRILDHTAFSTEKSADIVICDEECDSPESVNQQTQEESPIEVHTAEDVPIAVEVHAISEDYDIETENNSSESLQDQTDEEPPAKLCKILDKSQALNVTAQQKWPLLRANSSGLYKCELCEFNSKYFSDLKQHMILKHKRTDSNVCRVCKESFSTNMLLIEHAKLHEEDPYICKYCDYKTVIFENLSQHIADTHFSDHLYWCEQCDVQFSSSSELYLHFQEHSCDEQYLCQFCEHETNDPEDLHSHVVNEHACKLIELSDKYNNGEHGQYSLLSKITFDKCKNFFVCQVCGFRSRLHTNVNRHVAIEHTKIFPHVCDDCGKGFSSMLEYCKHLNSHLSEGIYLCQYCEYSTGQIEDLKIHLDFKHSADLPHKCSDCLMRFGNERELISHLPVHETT
# Variants of: B1
# Conditions: with klhl9_human KLHL9, Q9P2J3
row,Variant,effect of a mutation on the interaction
1,Y87C,with no effect

# Variants of: B1
# Conditions: with klhl9_human KLHL9, Q9P2J3
# Remark: another data set of the same source
row,Variant,effect of a mutation on the interaction
1,F133L,with no effect

# Variants of: B2
# Conditions: with tnap3_human TNFAIP3, P21580
row,Variant,effect of a mutation on the interaction
1,F133L,with no effect

# Variants of: B2
# Conditions: with tnap3_human TNFAIP3, P21580
# Remark: another data set of the same source
row,Variant,effect of a mutation on the interaction
1,Y87C,with no effect

# Variants of: B3
# Conditions: with sem4a_human SEMA4A
row,Variant,effect of a mutation on the interaction
1,F102C,with no effect

# Variants of: B3
# Conditions: with sem4a_human SEMA4A
# Remark: another data set of the same source
row,Variant,effect of a mutation on the interaction
1,F133L,with no effect

# Variants of: B3
# Conditions: with sem4a_human SEMA4A
# Remark: another data set of the same source
row,Variant,effect of a mutation on the interaction
1,F133V,with no effect

# Variants of: B3
# Conditions: with sem4a_human SEMA4A
# Remark: another data set of the same source
row,Variant,effect of a mutation on the interaction
1,Y87C,with no effect

# Variants of: B4
# Conditions: with zn639_human ZNF639, Q9UID6
row,Variant,effect of a mutation on the interaction
1,F102C,with no effect

# Variants of: B4
# Conditions: with zn639_human ZNF639, Q9UID6
# Remark: another data set of the same source
row,Variant,effect of a mutation on the interaction
1,F133V,with no effect

# Variants of: B4
# Conditions: with zn639_human ZNF639, Q9UID6
# Remark: another data set of the same source
row,Variant,effect of a mutation on the interaction
1,F133L,with no effect
